Measurements: paper PMC12432892, “Therapeutic applications of interface-mimicking peptides for targeting the SARS-CoV-2 NSP12-NSP8 RdRp complex” (Molecular Therapy, 2025)

Molecular target: SARS-CoV-2 NSP12 (SARS-CoV-2), P0DTD1

B1: N8-Pepα (peptide)
chain: NDALNNIINNARDGCVPLNIIPLTTA
modifications: not checked
IC50 of inhibition of SARS-CoV-2 RdRp activity in the cell-based minigenome (luciferase) assay; pair blocked: NSP12-NSP8: 8 µM
